In patent publication US20170067044A1 one finds smallest amount of streptavidin detected (pg loaded in the well) data, which are given here for 1 substance.

The target of the experiment is streptavidin (recombinant, with Ni-affinity tag) (UniProt P22629). Kind of experiment: PLISA on immobilized streptavidin, binding through biotin.
Chain of streptavidin (recombinant, with Ni-affinity tag) (P22629 37-163 limits assumed): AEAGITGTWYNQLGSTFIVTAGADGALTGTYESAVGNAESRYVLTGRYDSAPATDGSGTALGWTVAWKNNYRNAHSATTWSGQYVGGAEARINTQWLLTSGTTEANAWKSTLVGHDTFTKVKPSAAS

Regarding “biotinylated form of M13LuxABElink-SompbioVII3 (luciferase-encoding M13 phage exposing a biotinylated BirA-substrate polypeptide as part of capsid protein VII) (from UniProt P69533 1-33)”, the smallest amount of streptavidin detected (pg loaded in the well) stood at 1.
